From EP4796128A1, “ANTI-C-MET ANTIBODY-DRUG CONJUGATE COMPRISING CAMPTOTHECIN DERIVATIVE” (Celltrion, Inc., priority 2023, dated 2025)
Read-outs that look alike come from different tables or passages of the source. Non-standard residues stand in square brackets, D forms with d. Residues, ends and D or L forms follow the SMILES beside them. *: point of attachment. Dolaproine = CO[C@@H]([C@@H]1CCCN1)[C@@H](C)C(=O)O; Dil = CC[C@H](C)[C@H](NC)[C@@H](CC(=O)O)OC; X1 = C[C@@H](N*)[C@@H](O)c1ccccc1; NMeV = CN[C@H](C(=O)O)C(C)C

Key:
T47D = assay: cells; assay type: cell-based; conditions: Homo sapiens, 144 h
SNU-5 = assay: In-vitro cell viability assay (CellTiter-Glo); assay type: cell-based; conditions: Homo sapiens
NCI-H1573 = assay: In-vitro cell viability assay (CellTiter-Glo); assay type: cell-based; conditions: Homo sapiens
HT29 = assay: In-vitro cell viability assay (CellTiter-Glo); assay type: cell-based; conditions: Homo sapiens, HT-29, 144 h
NCI-H1975 = assay: In-vitro cell viability assay (CellTiter-Glo); assay type: cell-based; conditions: Homo sapiens
recombinant human c-Met [1] = biological target: T1, recombinant human c-Met (human, UniProt P08581 25-932); assay: ELISA on recombinant human c-Met
T1 construct: Recombinant protein used in ELISA and BLI; also called human c-MET protein; human-derived c-Met protein

[2] = biological target: T2, monkey c-Met (cynomolgus c-Met) (monkey (cynomolgus), UniProt A0A2K5UM36 25-932); assay: ELISA on monkey (cynomolgus) c-Met
T2 construct: Recombinant protein used in ELISA and BLI; also called monkey-derived c-MET protein; recombinant monkey c-Met

c-Met derived from mice = biological target: T3, c-Met derived from mice (mice, UniProt P16056 25-931, limits assumed); assay: ELISA, cross-reactivity test with diluted M01
T3 construct: Antigen of the cross-reactivity ELISA; also called mouse c-Met

c-Met derived from rats = biological target: T4, c-Met derived from rats (rats, UniProt P97523 25-935, limits assumed); assay: ELISA, cross-reactivity test with diluted M01
T4 construct: Antigen of the cross-reactivity ELISA; also called rat c-Met

c-Met derived from dogs = biological target: T5, c-Met derived from dogs (dogs, UniProt Q75ZY9 25-935, limits assumed); assay: ELISA, cross-reactivity test with diluted M01
T5 construct: Antigen of the cross-reactivity ELISA; also called dog c-Met

recombinant human c-Met [3] = biological target: T1, recombinant human c-Met; assay: BLI, antibody as loading sample, human c-Met
[4] = biological target: T2, monkey c-Met (cynomolgus c-Met); assay: BLI, antibody as loading sample, monkey c-Met
[5] = test system: NCI-H441 human lung cancer xenograft; assay: NCI-H441 human lung cancer xenograft model; assay type: in vivo, BALB/c nude mice; conditions: 3 mg/kg i.v. QW × 2 weeks
Description: NCI-H441 tumor cells (ATCC, Catalog No. HTB-174) were maintained in vitro in RPMI 1640 medium supplemented with 10% FBS and 1% antibiotic-antimycotic at 37°C and 5% CO2 in air. Tumor cells NCI-H441 were routinely passaged twice a week by treatment with trypsin-EDTA. The cells with exponential growth were harvested and counted for tumor inoculation.
Mice were randomly assigned to groups of 10 each, and tumor cells were inoculated into the mice according to the experimental conditions shown in Table 19 below. Specifically, NCI-H441 tumor cells (5 × 10^6 cells/mouse) were subcutaneously inoculated into the right flank of each mouse together with 0.2 mL of PBS containing Matrigel (1:1). Treatment was started on day 14 after inoculation, when the mean tumor volume reached 180 mm^3, and the treatment start date was set as day 0. This experiment was performed for 35 days.
Statistical analysis was performed on the data obtained 35 days after the start of the experiment to determine differences in tumor volume and tumor weight between groups. […] All data were analyzed using SPSS 29.0. p < 0.05 was considered statistically significant.

T2 sequence (A0A2K5UM36 entry or part of it limits assumed, form in doubt): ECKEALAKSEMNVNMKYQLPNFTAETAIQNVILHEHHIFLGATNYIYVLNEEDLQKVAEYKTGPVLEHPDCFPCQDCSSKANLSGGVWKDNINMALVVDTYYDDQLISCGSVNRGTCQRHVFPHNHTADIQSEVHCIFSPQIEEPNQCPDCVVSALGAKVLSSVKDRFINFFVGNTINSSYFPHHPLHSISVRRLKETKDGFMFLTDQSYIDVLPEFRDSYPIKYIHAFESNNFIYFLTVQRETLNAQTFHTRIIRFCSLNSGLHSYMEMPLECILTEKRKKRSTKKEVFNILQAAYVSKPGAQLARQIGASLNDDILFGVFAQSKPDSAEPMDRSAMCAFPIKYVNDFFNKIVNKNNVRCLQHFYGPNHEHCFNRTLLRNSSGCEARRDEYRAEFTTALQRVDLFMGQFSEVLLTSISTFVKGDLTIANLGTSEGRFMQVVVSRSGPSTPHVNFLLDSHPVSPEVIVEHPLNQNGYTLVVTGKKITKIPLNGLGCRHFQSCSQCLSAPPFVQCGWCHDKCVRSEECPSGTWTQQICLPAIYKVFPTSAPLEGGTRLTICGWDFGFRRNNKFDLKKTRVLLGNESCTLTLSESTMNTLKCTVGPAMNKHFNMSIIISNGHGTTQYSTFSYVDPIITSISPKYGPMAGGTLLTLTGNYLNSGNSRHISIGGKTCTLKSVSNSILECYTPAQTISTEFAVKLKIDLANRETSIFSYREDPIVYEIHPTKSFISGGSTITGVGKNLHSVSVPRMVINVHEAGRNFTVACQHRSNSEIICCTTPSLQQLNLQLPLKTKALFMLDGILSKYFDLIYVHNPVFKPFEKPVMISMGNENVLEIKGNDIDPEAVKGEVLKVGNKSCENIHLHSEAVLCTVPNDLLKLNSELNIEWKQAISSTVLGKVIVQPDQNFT
T1 sequence (P08581 25-932 limits assumed): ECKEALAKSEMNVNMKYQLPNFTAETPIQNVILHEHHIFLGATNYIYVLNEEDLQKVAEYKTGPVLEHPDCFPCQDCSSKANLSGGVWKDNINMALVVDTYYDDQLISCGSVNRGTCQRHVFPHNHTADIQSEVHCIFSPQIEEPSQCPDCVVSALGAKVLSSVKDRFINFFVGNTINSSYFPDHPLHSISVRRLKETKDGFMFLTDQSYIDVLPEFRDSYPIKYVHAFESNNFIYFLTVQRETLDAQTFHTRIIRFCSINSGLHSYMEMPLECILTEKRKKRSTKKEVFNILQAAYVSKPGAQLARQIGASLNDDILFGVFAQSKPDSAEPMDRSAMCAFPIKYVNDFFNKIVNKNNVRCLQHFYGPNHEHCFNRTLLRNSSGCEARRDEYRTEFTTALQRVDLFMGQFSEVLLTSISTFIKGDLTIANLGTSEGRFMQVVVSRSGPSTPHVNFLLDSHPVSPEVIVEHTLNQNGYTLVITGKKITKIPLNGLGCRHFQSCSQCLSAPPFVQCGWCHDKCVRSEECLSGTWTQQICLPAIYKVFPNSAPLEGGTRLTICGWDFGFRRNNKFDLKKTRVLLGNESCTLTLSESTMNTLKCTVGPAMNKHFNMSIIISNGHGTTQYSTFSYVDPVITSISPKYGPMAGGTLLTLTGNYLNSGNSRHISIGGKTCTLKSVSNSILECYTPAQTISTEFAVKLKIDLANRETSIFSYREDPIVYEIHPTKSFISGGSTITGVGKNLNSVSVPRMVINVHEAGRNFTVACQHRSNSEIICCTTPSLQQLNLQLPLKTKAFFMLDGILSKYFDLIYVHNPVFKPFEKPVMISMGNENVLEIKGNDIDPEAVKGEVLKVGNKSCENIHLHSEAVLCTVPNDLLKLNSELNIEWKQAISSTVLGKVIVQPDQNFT
T3 sequence (P16056 25-931 limits assumed): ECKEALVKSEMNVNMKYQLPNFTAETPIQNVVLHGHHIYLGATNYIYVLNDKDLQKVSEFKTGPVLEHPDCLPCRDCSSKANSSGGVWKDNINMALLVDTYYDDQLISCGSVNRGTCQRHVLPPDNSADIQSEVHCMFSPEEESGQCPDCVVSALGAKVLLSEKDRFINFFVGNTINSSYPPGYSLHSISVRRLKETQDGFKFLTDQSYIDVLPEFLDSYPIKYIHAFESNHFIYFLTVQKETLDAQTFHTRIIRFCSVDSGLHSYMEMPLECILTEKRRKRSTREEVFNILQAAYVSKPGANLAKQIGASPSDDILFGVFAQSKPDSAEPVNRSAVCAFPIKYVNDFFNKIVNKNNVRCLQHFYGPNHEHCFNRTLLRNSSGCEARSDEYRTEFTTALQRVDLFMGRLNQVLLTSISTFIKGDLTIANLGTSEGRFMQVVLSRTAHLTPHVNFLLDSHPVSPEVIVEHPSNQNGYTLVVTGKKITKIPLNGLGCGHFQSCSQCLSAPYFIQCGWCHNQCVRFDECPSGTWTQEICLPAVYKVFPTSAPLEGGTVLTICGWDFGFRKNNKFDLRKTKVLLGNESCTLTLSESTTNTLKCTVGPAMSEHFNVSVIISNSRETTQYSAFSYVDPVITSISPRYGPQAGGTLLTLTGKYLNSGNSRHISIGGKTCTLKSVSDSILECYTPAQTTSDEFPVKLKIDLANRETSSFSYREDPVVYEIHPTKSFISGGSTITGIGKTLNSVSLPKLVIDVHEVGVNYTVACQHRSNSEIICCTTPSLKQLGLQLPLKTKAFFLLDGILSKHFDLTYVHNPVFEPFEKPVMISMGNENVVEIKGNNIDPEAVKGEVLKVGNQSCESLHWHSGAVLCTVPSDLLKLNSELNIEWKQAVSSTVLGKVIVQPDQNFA
T4 sequence (P97523 25-935 limits assumed): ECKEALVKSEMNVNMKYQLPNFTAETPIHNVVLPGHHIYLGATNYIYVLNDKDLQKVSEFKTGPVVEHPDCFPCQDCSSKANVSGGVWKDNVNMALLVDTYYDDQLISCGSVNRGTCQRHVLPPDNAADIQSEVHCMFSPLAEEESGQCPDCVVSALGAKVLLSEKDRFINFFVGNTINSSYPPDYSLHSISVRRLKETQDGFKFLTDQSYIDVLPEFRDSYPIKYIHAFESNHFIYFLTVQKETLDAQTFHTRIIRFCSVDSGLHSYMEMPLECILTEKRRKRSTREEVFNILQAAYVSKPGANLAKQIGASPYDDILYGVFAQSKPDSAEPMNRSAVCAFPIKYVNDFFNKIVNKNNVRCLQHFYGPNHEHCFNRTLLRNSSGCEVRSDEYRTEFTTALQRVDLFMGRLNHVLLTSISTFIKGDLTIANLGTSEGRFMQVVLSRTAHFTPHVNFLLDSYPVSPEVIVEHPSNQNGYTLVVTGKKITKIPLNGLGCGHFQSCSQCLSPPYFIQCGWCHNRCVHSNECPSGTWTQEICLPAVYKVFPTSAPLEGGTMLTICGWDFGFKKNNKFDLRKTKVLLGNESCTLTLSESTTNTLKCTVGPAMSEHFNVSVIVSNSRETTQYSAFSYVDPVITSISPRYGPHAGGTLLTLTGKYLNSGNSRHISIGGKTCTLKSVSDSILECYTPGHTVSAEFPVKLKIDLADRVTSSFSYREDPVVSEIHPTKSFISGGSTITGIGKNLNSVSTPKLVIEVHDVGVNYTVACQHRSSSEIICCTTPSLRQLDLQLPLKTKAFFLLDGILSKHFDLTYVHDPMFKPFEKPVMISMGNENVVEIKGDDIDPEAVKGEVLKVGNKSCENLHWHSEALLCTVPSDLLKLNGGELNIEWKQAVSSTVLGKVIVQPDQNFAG
T5 sequence (Q75ZY9 25-935 limits assumed): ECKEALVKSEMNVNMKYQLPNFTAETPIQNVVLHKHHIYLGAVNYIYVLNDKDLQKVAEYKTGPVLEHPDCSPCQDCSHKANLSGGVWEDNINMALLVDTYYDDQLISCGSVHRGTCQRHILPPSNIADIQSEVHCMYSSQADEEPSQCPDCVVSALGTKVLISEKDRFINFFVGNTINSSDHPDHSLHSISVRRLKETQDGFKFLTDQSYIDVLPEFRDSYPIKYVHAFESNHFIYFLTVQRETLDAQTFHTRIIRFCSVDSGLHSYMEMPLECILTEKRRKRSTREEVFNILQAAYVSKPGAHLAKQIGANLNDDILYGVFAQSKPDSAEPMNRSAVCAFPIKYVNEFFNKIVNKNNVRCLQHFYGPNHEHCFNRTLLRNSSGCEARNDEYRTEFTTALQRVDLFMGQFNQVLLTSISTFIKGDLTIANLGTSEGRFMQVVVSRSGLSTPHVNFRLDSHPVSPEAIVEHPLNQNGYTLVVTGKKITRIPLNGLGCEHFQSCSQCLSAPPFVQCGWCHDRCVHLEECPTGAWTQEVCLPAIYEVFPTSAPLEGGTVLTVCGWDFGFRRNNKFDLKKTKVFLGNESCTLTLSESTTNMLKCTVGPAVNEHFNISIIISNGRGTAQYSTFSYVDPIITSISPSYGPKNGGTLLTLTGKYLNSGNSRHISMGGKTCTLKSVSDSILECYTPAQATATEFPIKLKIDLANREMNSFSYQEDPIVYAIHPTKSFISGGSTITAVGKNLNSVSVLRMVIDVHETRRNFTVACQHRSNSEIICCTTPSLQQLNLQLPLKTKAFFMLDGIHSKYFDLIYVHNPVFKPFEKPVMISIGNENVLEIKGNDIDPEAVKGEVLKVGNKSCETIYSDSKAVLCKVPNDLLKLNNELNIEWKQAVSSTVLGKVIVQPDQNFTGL

`CC[C@H](C)[C@@H]([C@@H](CC(=O)N1CCC[C@H]1[C@H](OC)[C@@H](C)C(=O)N[C@H](C)[C@@H](O)c1ccccc1)OC)N(C)C(=O)[C@@H](NC(=O)[C@@H](NC)C(C)C)C(C)C` [MMAE, monomethyl auristatin E, reference compound] (H-[NMeV]V[Dil][Dolaproine]-X1) showed an IC50 (T47D; 6 days incubation, read-out: IC50) of 0.51 nM, an IC50 (SNU-5; 144 h, SNU-5, 6 days incubation, read-out: IC50) of 0.42 nM and an IC50 (NCI-H1573; 144 h, NCI-H1573, 6 days incubation, read-out: IC50) of 0.42 nM. The IC50 (HT29; HT29, 6 days incubation, read-out: IC50) was 0.14 nM and the IC50 (NCI-H1975; 144 h, NCI-H1975, 6 days incubation, read-out: IC50) was 0.3 nM.

`CC[C@@]1(O)C(=O)OCc2c1cc1n(c2=O)Cc2c-1nc1cc3c(c4c1c2[C@@H](NC(=O)[C@@H](C)O)CC4)OCO3` [PBX-7016] gave an IC50 (T47D) of 0.45 nM, an IC50 (SNU-5; SNU-5, 144 h) of 5.21 nM and an IC50 (NCI-H1573; NCI-H1573, 144 h) of 2.55 nM. For the same molecule, the IC50 (HT29) was 3.8 nM and the IC50 (NCI-H1975; NCI-H1975, 144 h) was 9.8 nM.

B1: anti-c-Met antibody (M01) (antibody, human IgG1, kappa, V domains shown)
VH: QVQLVQSGAEVKKPGASVKVSCKASGYIFTAYTMHWVRQAPGQGLEWMGWIKPNNGLANYAQKFQGRVTMTRDTSISTAYMELSRLRSDDTAVYYCARSEITTEFDYWGQGTLVTVSS
VL: DIVMTQSPDSLAVSLGERATINCKSSESVDSYANSFLHWYQQKPGQPPKLLIYRASTRESGVPDRFSGSGSGTDFTLTISSLQAEDVAVYYCQQSKEDPLTFGGGTKVEIKR
notes: Naked antibody; also called M01 antibody; M01 (Anti-cMet mAb)
In the case of B1, the EC50 (recombinant human c-Met [1]) is reported as 0.14 nM, the EC50 [2] is reported as 0.14 nM and the binding result (c-Met derived from mice) is reported as “no binding”. The binding result (c-Met derived from rats) was “no binding”, the binding result (c-Met derived from dogs) was “no binding” and the Kd (recombinant human c-Met [3]) was 0.605 nM. The koff (recombinant human c-Met [3]) was 4.07e-05 s⁻¹, the kon (recombinant human c-Met [3]) was 67400 M⁻¹ s⁻¹ and the Kd [4] was 0.707 nM. It also gave a koff [4] of 5.69e-05 s⁻¹ and a kon [4] of 80500 M⁻¹ s⁻¹.

B2: P23-MMAE: isotype ADC: anti-influenza A antibody (Navivumab, P23) with monomethyl auristatin E payload; DAR 3.1 (conjugate, chains of the INN, looked up)
VH: QVQLVQSGAEVKKPGASVKVSCKTSGYSFSTYGVSWVRQAPGQGPEWVGWISAYTGITDYAQKFQGRVTLTTDATTATAFLDLRSLRPDDTATYFCARDKVQGRVEVGSGGRHDYWGQGTLVIVSS
VL: EVVLTQSPGTLALPPGERATLSCRASHRVGSTYIAWYQQKSGQAPRRLIYGASNRATDIPDRFSGSGSGTDFTLTIRRLEPEDSAVYYCQQFSVSPWTFGQGTRVEIK
modifications: MMAE payload, DAR 3.1
With B2 the “Tumor Volume” value ([5]; Day 0, mean ± SEM) was 180 ± 13 mm^3, the “Tumor Volume” value ([5]; Day 4, mean ± SEM) was 208 ± 19 mm^3 and the “Tumor Volume” value ([5]; Day 7, mean ± SEM) was 244 ± 26 mm^3. The “Tumor Volume” value ([5]; Day 11, mean ± SEM) was 283 ± 36 mm^3, the “Tumor Volume” value ([5]; Day 14, mean ± SEM) was 287 ± 39 mm^3 and the “Tumor Volume” value ([5]; Day 18, mean ± SEM) was 358 ± 66 mm^3. The “Tumor Volume” value ([5]; Day 21, mean ± SEM) was 396 ± 71 mm^3, the “Tumor Volume” value ([5]; Day 25, mean ± SEM) was 563 ± 93 mm^3 and the “Tumor Volume” value ([5]; Day 28, mean ± SEM) was 708 ± 119 mm^3. For the same molecule, the “Tumor Volume” value ([5]; Day 32, mean ± SEM) was 977 ± 193 mm^3, the TGI ([5]; Day 35) was 26.27% and the “Tumor Weight on Day 35” value ([5]; Day 35) was 1.342 ± 0.247 g. For the same molecule, the T/C ([5]; Day 35, tumor volume vs P23 isotype mAb group) was 76.70% and the T/Cweight ([5]; Day 35, tumor weight vs P23 isotype mAb group) was 80.39%.
